Positions count from the first letter of the chain named.

Consider eight molecules from US20130209489A1 (Amgen, published 2013).

Sequences and labels used below:
B1: anti-myostatin antibody 12A5-1 (antibody, V domains shown)
VH: EVQLVESGGGLVQPGGSLRLSCAASGFTFSNYWMNWVRQAPGKGLEWVAQIRLKSDNYATHYAESVKGRFTISRDNAKNSLYLQMNSLRAEDTAVYYCARGLDYWGQGTTVTVSS
VL: DIQMTQSPSSLSASVGDRVTITCKASQDINKYVAWYQQKPGKAPKLLIYYTSTLQPGVPSRFSGSGSGTDFTFTISSLQPEDIATYYCLQYDNLLYTFGQGTKLEIK
B2: anti-myostatin antibody 12A5-10 (antibody, V domains shown)
VH: B1 VH with S30R, M34C, A99T, R100E
VL: B1 VL with L94K
B3: anti-myostatin antibody 12A5-12 (antibody, V domains shown)
VH: B1 VH with M34L, A99T, R100E
VL: B1 VL with T53W
B4: anti-myostatin antibody 12A5-9 (antibody, V domains shown)
VH: B1 VH with S30R, M34C, A99T, R100E
VL: B1 VL with S52R
B5: anti-myostatin antibody 12A5-18 (antibody, V domains shown)
VH: B1 VH with S30R, M34C, A99T, R100E
VL: B1 VL with T53H
B6: anti-myostatin antibody 12A5-8 (antibody, V domains shown)
VH: B1 VH with S30R, M34C, A99T, R100E
VL: B1 VL with S52K
B7: anti-myostatin antibody 12A5-6 (antibody, V domains shown)
VH: B1 VH with N31R, A99T, R100E
VL: B1 VL with T53F, N93A
B8: anti-myostatin antibody 12A5-3 (antibody, V domains shown)
VH: B1 VH with M34C, A99T, R100E
VL: B1 VL with T53F

This experiment concerns the target mature human myostatin (human, UniProt O14793 267-375). The experiment can be described thus: cell-based or functional assay.
B1: the “IC50 (nM), C2C12/pMARE luciferase reporter cell myostatin activity assay” value worked out at 473 nM. B2: the “IC50 (nM), C2C12/pMARE luciferase reporter cell myostatin activity assay” value was found to be 3.08 nM. B3: the “IC50 (nM), C2C12/pMARE luciferase reporter cell myostatin activity assay” value came to 1.45 nM. For B4, the “IC50 (nM), C2C12/pMARE luciferase reporter cell myostatin activity assay” value turned out to be 3.98 nM.

On to B5, for which the “IC50 (nM), C2C12/pMARE luciferase reporter cell myostatin activity assay” value amounted to 1.45 nM.

In the case of B6, the “IC50 (nM), C2C12/pMARE luciferase reporter cell myostatin activity assay” value is 4.96 nM. For the molecule B7, the “IC50 (nM), C2C12/pMARE luciferase reporter cell myostatin activity assay” value amounted to 1.64 nM. With B8, the “IC50 (nM), C2C12/pMARE luciferase reporter cell myostatin activity assay” value is 2.53 nM.
